Laboratory results: patent US20200024330A1

Tests used:
Assay in all cases: cell-based or functional assay
[1] = target: HIV-1 APV-6 envelope glycoprotein (Env) on pseudovirus (HIV-1)
[2] = target: HIV-1 IAVI-C18 envelope glycoprotein (Env) on pseudovirus (HIV-1)
[3] = target: aMLV envelope protein on pseudovirus (aMLV)
[4] = target: HIV-1 92UG024 Env (on pseudovirus) (HIV-1)
[5] = target: HIV-1 93IN905 Env (on pseudovirus) (HIV-1)
[6] = target: HIV-1 93UG077 Env (on pseudovirus) (HIV-1)
[7] = target: HIV-1 94UG103 Env (on pseudovirus) (HIV-1)
[8] = target: HIV-1 APV17 Env (on pseudovirus) (HIV-1)
[9] = target: HIV-1 APV6 Env (on pseudovirus) (HIV-1)
[10] = target: HIV-1 JRCSF Env (on pseudovirus) (HIV-1) (UniProt P20871)
[11] = target: HIV-1 MGRM-C-027 Env (on pseudovirus) (HIV-1)
[12] = target: HIV-1 MGRM-C-028 Env (on pseudovirus) (HIV-1)
[13] = target: HIV-1 MGRM-D-001 Env (on pseudovirus) (HIV-1)
[14] = target: HIV-1 envelope glycoprotein (Env) of isolate MGRM-C-014, on pseudovirus (HIV-1)
[15] = target: HIV-1 envelope glycoprotein (Env) of isolate MGRM-C-015, on pseudovirus (HIV-1)
[16] = target: HIV-1 envelope glycoprotein (Env) of isolate MGRM-C-024, on pseudovirus (HIV-1)
[17] = target: HIV-1 envelope glycoprotein (Env) of isolate MGRM-C-025, on pseudovirus (HIV-1)
[18] = target: HIV-1 envelope glycoprotein (Env) of isolate MGRM-C-027, on pseudovirus (HIV-1)
[19] = target: HIV-1 Env of isolate 92UG005 (subtype D) (HIV-1)
[20] = target: HIV-1 Env of isolate 93MW959 (pseudovirus) (HIV-1 isolate 93MW959, subtype C)
[21] = target: HIV-1 Env of isolate MG RM-AG-001 (HIV-1)
[22] = target: HIV-1 Env of isolate MG RM-AG-003 (HIV-1)
[23] = target: HIV-1 Env of isolate MG RM-AG-006 (HIV-1)
[24] = target: HIV-1 Env of isolate MG RM-AG-008 (HIV-1)
[25] = target: HIV-1 MGRM-Chronic-B-010 Env (pseudovirus) (HIV-1)
[26] = target: HIV-1 Env of isolate MGRM-F1-004 (HIV-1)
[27] = target: HIV-1 Env of isolate MGRM-F1-006 (HIV-1)
[28] = target: HIV-1 APV17 envelope glycoprotein (Env) on pseudovirus (HIV-1)
[29] = target: HIV-1 MGRM-AG-005 envelope glycoprotein (Env) on pseudovirus (HIV-1)
[30] = target: HIV-1 92TH021 envelope protein (Env) on pseudotyped virus (HIV-1 isolate 92TH021)
[31] = target: HIV-1 93IN905 envelope protein (Env) on pseudotyped virus (HIV-1 isolate 93IN905)
[32] = target: HIV-1 94UG103 envelope protein (Env) on pseudotyped virus (HIV-1 isolate 94UG103)
[33] = target: HIV-1 IAVI_C22 envelope protein (Env) on pseudotyped virus (HIV-1 isolate IAVI C22)

PGT-143 (4980_N08) (antibody), sequence (VH): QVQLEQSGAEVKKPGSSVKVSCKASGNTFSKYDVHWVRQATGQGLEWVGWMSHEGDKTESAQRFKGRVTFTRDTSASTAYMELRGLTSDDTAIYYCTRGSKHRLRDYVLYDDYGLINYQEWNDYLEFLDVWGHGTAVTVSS
PGT-143 (4980_N08) (antibody), sequence (VL): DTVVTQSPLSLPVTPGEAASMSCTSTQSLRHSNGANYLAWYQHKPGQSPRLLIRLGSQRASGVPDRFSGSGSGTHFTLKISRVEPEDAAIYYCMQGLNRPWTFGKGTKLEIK
PGT-142 (4995_E20) (antibody), sequence (VH): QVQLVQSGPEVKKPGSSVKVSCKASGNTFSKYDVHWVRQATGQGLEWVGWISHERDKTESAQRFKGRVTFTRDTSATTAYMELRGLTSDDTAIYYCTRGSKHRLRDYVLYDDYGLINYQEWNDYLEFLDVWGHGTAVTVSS
PGT-142 (4995_E20) (antibody), sequence (VL): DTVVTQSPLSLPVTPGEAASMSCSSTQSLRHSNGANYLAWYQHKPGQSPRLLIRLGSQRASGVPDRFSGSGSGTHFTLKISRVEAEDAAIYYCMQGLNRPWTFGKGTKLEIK
1443_C16 (PG16) (TCN-116) (antibody), sequence (VH): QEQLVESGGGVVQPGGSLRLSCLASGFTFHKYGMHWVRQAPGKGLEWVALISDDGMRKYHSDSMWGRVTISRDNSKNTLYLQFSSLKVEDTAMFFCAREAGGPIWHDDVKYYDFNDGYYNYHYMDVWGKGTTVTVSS
1443_C16 (PG16) (TCN-116) (antibody), sequence (VL): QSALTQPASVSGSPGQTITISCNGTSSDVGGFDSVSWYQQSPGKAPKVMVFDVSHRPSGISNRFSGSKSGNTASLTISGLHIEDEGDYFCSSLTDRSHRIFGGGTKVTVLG
PGT-141 (4964_G22; 4993_K13) (antibody), sequence (VH): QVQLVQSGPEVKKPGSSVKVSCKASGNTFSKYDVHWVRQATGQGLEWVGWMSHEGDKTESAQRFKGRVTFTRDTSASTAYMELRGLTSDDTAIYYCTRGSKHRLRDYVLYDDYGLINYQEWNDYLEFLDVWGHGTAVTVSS
PGT-144 (4970_K22) (antibody), sequence (VH): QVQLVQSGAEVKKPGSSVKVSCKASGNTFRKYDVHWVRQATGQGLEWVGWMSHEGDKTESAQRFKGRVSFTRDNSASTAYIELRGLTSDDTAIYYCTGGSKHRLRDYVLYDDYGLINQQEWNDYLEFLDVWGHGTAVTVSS
PGT-144 (4970_K22) (antibody), sequence (VL): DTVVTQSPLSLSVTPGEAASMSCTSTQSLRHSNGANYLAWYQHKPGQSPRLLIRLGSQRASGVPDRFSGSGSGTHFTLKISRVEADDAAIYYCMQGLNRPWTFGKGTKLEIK

b12 (antibody)
IC90 (pseudovirus neutralization) [1]: > 50 mg/L
IC90 (pseudovirus neutralization) [2]: > 50 mg/L
IC90 (pseudovirus neutralization) [3]: > 50 mg/L

PGT-143 (4980_N08) (antibody)
IC50 (ug/ml), pseudovirus neutralization [4]: > 10 µg/mL
IC50 (ug/ml), pseudovirus neutralization [5]: 0.0021 µg/mL
IC50 (ug/ml), pseudovirus neutralization [6]: > 10 µg/mL
IC50 (ug/ml), pseudovirus neutralization [7]: > 10 µg/mL
IC50 (ug/ml), pseudovirus neutralization [8]: 0.618 µg/mL
IC50 (ug/ml), pseudovirus neutralization [9]: 4.43 µg/mL
IC50 (ug/ml), pseudovirus neutralization [10]: 0.0064 µg/mL
IC50 (ug/ml), pseudovirus neutralization [11]: 0.505 µg/mL
IC50 (ug/ml), pseudovirus neutralization [12]: 1.82 µg/mL
IC50 (ug/ml), pseudovirus neutralization [13]: > 10 µg/mL
IC50, pseudovirus neutralization [14]: 8.81 mg/L
IC50, pseudovirus neutralization [15]: 0.085 mg/L
IC50, pseudovirus neutralization [16]: 0.05 mg/L
IC50, pseudovirus neutralization [17]: 0.336 mg/L
IC50, pseudovirus neutralization [18]: 0.598 mg/L

5145_B14 (PGT-127) (antibody)
IC50 (µg/mL), pseudovirus neutralization [19]: 1.11 µg/mL
IC50 (µg/mL) neutralization [20]: 6.95 µg/mL
neutralization IC50 [21]: > 50 mg/L
neutralization IC50 [22]: > 50 mg/L
neutralization IC50 [23]: 0.021 mg/L
neutralization IC50 [24]: > 50 mg/L
IC50, pseudovirus neutralization [25]: 0.019 mg/L

VRC01 (antibody)
IC50, pseudovirus neutralization [26]: 0.305 mg/L
IC50, pseudovirus neutralization [27]: 2.86 mg/L
IC50, pseudovirus neutralization [14]: > 50 mg/L
IC50, pseudovirus neutralization [15]: 1.57 mg/L
IC50, pseudovirus neutralization [16]: 3.4 mg/L
IC50, pseudovirus neutralization [17]: 2.36 mg/L
IC50, pseudovirus neutralization [18]: 0.125 mg/L

4E10 (antibody)
IC90 (pseudovirus neutralization) [2]: > 50 mg/L
IC90 (pseudovirus neutralization) [3]: > 50 mg/L

PGT-144 (4970_K22) (antibody)
IC50 (ug/ml), pseudovirus neutralization [4]: > 10 µg/mL
IC50 (ug/ml), pseudovirus neutralization [5]: 0.158 µg/mL
IC50 (ug/ml), pseudovirus neutralization [6]: > 10 µg/mL
IC50 (ug/ml), pseudovirus neutralization [7]: > 10 µg/mL
IC50 (ug/ml), pseudovirus neutralization [8]: 5.12 µg/mL
IC50 (ug/ml), pseudovirus neutralization [9]: > 10 µg/mL
IC50 (ug/ml), pseudovirus neutralization [10]: 0.128 µg/mL
IC50 (ug/ml), pseudovirus neutralization [11]: > 10 µg/mL
IC50 (ug/ml), pseudovirus neutralization [12]: > 10 µg/mL
IC50 (ug/ml), pseudovirus neutralization [13]: > 10 µg/mL
IC50, pseudovirus neutralization [14]: > 50 mg/L
IC50, pseudovirus neutralization [15]: 0.236 mg/L
IC50, pseudovirus neutralization [16]: 2.06 mg/L
IC50, pseudovirus neutralization [17]: 17.6 mg/L
IC50, pseudovirus neutralization [18]: > 50 mg/L

4858_P08 (PGT-123) (antibody)
IC50 (ug/ml), neutralizing activity [28]: 0.18 µg/mL
IC50, pseudovirus neutralization [28]: 0.18 mg/L
IC80, pseudovirus neutralization [28]: 0.539 mg/L
IC90 (pseudovirus neutralization) [28]: 1.01 mg/L
IC95, pseudovirus neutralization [28]: 1.75 mg/L
IC50 (µg/mL), pseudovirus neutralization [19]: 9.79 µg/mL
IC50 (µg/mL) neutralization [20]: 0.011 µg/mL
neutralization IC50 [21]: 2.51 mg/L
neutralization IC50 [22]: > 50 mg/L
neutralization IC50 [23]: 0.014 mg/L
neutralization IC50 [24]: 19.2 mg/L
IC50 (ug/ml), neutralizing activity [29]: 0.104 µg/mL
IC50, pseudovirus neutralization [29]: 0.104 mg/L
IC80, pseudovirus neutralization [29]: 1.28 mg/L
IC90 (pseudovirus neutralization) [29]: 6.38 mg/L
IC95, pseudovirus neutralization [29]: > 10 mg/L
IC50, pseudovirus neutralization [25]: 0.009 mg/L

2F5 (antibody)
IC90 (pseudovirus neutralization) [3]: > 50 mg/L

5147_N06 (PGT-130) (antibody)
IC50 (ug/ml), neutralizing activity [28]: > 10 µg/mL
IC50 (ug/ml), neutralizing activity [29]: 0.947 µg/mL

1495_C14 (PGC14) (antibody)
IC50, pseudovirus neutralization, 1 hour Virus/Ab Incubation [30]: > 50 mg/L
IC50, pseudovirus neutralization, 18 hour Virus/Ab Incubation [30]: > 50 mg/L
IC50, pseudovirus neutralization, 1 hour Virus/Ab Incubation [31]: > 50 mg/L
IC50, pseudovirus neutralization, 18 hour Virus/Ab Incubation [31]: 0.146 mg/L
IC50, pseudovirus neutralization, 1 hour Virus/Ab Incubation [32]: > 50 mg/L
IC50, pseudovirus neutralization, 18 hour Virus/Ab Incubation [32]: > 50 mg/L
IC50, pseudovirus neutralization, 1 hour Virus/Ab Incubation [33]: > 50 mg/L
IC50, pseudovirus neutralization, 18 hour Virus/Ab Incubation [33]: 13.4 mg/L

PGT-142 (4995_E20) (antibody)
IC50 (ug/ml), pseudovirus neutralization [4]: > 10 µg/mL
IC50 (ug/ml), pseudovirus neutralization [5]: 0.0017 µg/mL
IC50 (ug/ml), pseudovirus neutralization [6]: > 10 µg/mL
IC50 (ug/ml), pseudovirus neutralization [7]: > 10 µg/mL
IC50 (ug/ml), pseudovirus neutralization [8]: 0.393 µg/mL
IC50 (ug/ml), pseudovirus neutralization [9]: 5.42 µg/mL
IC50 (ug/ml), pseudovirus neutralization [10]: 0.0085 µg/mL
IC50 (ug/ml), pseudovirus neutralization [11]: 0.272 µg/mL
IC50 (ug/ml), pseudovirus neutralization [12]: 1.23 µg/mL
IC50 (ug/ml), pseudovirus neutralization [13]: > 10 µg/mL
IC50, pseudovirus neutralization [14]: 6.02 mg/L
IC50, pseudovirus neutralization [15]: 0.038 mg/L
IC50, pseudovirus neutralization [16]: 0.03 mg/L
IC50, pseudovirus neutralization [17]: 0.183 mg/L
IC50, pseudovirus neutralization [18]: 0.792 mg/L

1443_C16 (PG16) (TCN-116) (antibody)
IC50, pseudovirus neutralization, 1 hour Virus/Ab Incubation [30]: 0.136 mg/L
IC50, pseudovirus neutralization, 18 hour Virus/Ab Incubation [30]: 0.0435 mg/L
IC50, pseudovirus neutralization, 1 hour Virus/Ab Incubation [31]: 0.33 mg/L
IC50, pseudovirus neutralization, 18 hour Virus/Ab Incubation [31]: 0.255 mg/L
IC50, pseudovirus neutralization, 1 hour Virus/Ab Incubation [32]: 0.0211 mg/L
IC50, pseudovirus neutralization, 18 hour Virus/Ab Incubation [32]: 0.0085 mg/L
IC90 (pseudovirus neutralization) [1]: 44.3 mg/L
IC90 (pseudovirus neutralization) [2]: 0.207 mg/L
IC50, pseudovirus neutralization, 1 hour Virus/Ab Incubation [33]: 0.114 mg/L
IC50, pseudovirus neutralization, 18 hour Virus/Ab Incubation [33]: 0.106 mg/L
IC90 (pseudovirus neutralization) [3]: > 50 mg/L

5141_B17 (PGT-126) (antibody)
IC50 (ug/ml), neutralizing activity [28]: 0.501 µg/mL
IC50 (µg/mL), pseudovirus neutralization [19]: 0.037 µg/mL
IC50 (µg/mL) neutralization [20]: 9.44 µg/mL
neutralization IC50 [21]: > 50 mg/L
neutralization IC50 [22]: > 50 mg/L
neutralization IC50 [23]: 0.01 mg/L
neutralization IC50 [24]: > 50 mg/L
IC50 (ug/ml), neutralizing activity [29]: 1.35 µg/mL
IC50, pseudovirus neutralization [25]: 0.005 mg/L

PGT-141 (4964_G22; 4993_K13) (antibody)
IC50 (ug/ml), pseudovirus neutralization [4]: > 10 µg/mL
IC50 (ug/ml), pseudovirus neutralization [5]: 0.0016 µg/mL
IC50 (ug/ml), pseudovirus neutralization [6]: > 10 µg/mL
IC50 (ug/ml), pseudovirus neutralization [7]: > 10 µg/mL
IC50 (ug/ml), pseudovirus neutralization [8]: 0.616 µg/mL
IC50 (ug/ml), pseudovirus neutralization [9]: 5.08 µg/mL
IC50 (ug/ml), pseudovirus neutralization [10]: 0.0047 µg/mL
IC50 (ug/ml), pseudovirus neutralization [11]: 0.822 µg/mL
IC50 (ug/ml), pseudovirus neutralization [12]: 2.35 µg/mL
IC50 (ug/ml), pseudovirus neutralization [13]: > 10 µg/mL
IC50, pseudovirus neutralization [14]: 11.8 mg/L
IC50, pseudovirus neutralization [15]: 0.033 mg/L
IC50, pseudovirus neutralization [16]: 0.101 mg/L
IC50, pseudovirus neutralization [17]: 0.247 mg/L
IC50, pseudovirus neutralization [18]: 3.27 mg/L

4877_D15 (PGT-122) (antibody)
IC50 (ug/ml), neutralizing activity [28]: 0.522 µg/mL
IC50 (µg/mL), pseudovirus neutralization [19]: > 50 µg/mL
IC50 (µg/mL) neutralization [20]: 0.016 µg/mL
neutralization IC50 [21]: 14.5 mg/L
neutralization IC50 [22]: 43.7 mg/L
neutralization IC50 [23]: 0.028 mg/L
neutralization IC50 [24]: > 50 mg/L
IC50 (ug/ml), neutralizing activity [29]: > 10 µg/mL
IC50, pseudovirus neutralization [25]: 0.018 mg/L

2G12 (antibody)
IC90 (pseudovirus neutralization) [2]: > 50 mg/L
IC90 (pseudovirus neutralization) [3]: > 50 mg/L

5123_A06 (PGT-125) (antibody)
IC50 (ug/ml), neutralizing activity [28]: 7.31 µg/mL
neutralization IC50 [28]: 7.31 mg/L
neutralization IC80 [28]: > 10 mg/L
neutralization IC90 [28]: > 10 mg/L
neutralization IC95 [28]: > 10 mg/L
IC50 (µg/mL), pseudovirus neutralization [19]: > 50 µg/mL
IC50 (µg/mL) neutralization [20]: 37.5 µg/mL
neutralization IC50 [21]: > 50 mg/L
neutralization IC50 [22]: > 50 mg/L
neutralization IC50 [23]: 0.008 mg/L
neutralization IC50 [24]: > 50 mg/L
IC50 (ug/ml), neutralizing activity [29]: > 10 µg/mL
neutralization IC50 [29]: > 10 mg/L
neutralization IC80 [29]: > 10 mg/L
neutralization IC90 [29]: > 10 mg/L
neutralization IC95 [29]: > 10 mg/L
IC50, pseudovirus neutralization [25]: 0.006 mg/L
